Test results taken from the DeepSol protein solubility set.

Assay: soluble on expression in E. coli; label from the status in PepcDB or PDB records

| Sequence | soluble on expression in E. coli |
| --- | --- |
| MAAESATTETVEKSGNEESTVEVKVNGEAQNPPQESAKPAESVEDDDEPAPAKKRSGGDSEEKEDEAAEDGPEDGEEKSNLDDDQNVENPAYIPKTGRFYMHDDNRRGDVNNSQVQDDDSDDRRNLKKSRADCDWKHDRFDEKFQRPKTKKQIVTKYGFDIRHKDGTPIQDGEEIDAPAPESTEEESSDARQVSRQQKDRRVSSTTRGKVGKSGTSRRPMKQREREDTVDESKGEEEEDQGVRPAQKRQVKQQEKPRKQKPAAPPSSEENEEDEDDGAIRRGQRRAVPLRRGTTSGPPSRLRGRMSHPMGPPRRSSGAPPSSASNRRPVESSSRGPPPPPSSSSRRDYSHQGDRNDDRFENHRRGVIRGASRGGGTVTRGTGGYGRTGAIRGGVRGSGAPRYGVRRTDTSEQSEGYQRGGSGTDYSSPRPNHQSDRSYQASSTNFRGGSHPHPSANVYPSSRGGYSSNNADYASRGGGGYHGPPQHHNNHHNHQQKRFVQGPPPPMVAVGVVPGNVVPPPQMTRGSTHGGNQHNGGGGGGSGGQQRIRQPTDVVYFDPQQQQGTRQLPPRSKKVIPIVDPKDHQ | not soluble |
| MAAFNAKYLIDLLKRIRSGEESIDSPDALELLYIPLPLAHELGVINSMDGLDPYDEMEISCKSILKKLDEKKKTEEKHRAKQERQAQKKGAKEQAKKEKAELKKEAKELLKKEKAEERKKESLKRKLSEKSEPAAKKAKASEDQENRGATKKKITPPNRKHTALFKKCMAMRVKNFAY | not soluble |
| MAAGQNGHEEWVGSAYLFVESSLDKVVLSDAYAHPQQKVAVYRALQAALAESGGSPDVLQMLKIHRSDPQLIVQLRFCGRQPCGRFLRAYREGALRAALQRSLAAALAQHSVPLQLELRAGAERLDALLADEERCLSCILAQQPDRLRDEELAELEDALRNLKCGSGARGGDGEVASAP | soluble |
| MAALFQEASSCPVCSDYLEKPMSLECGCTVCLKCINSLQKEPHGEDLLCCCCSMVSQRNKIRPNRQLERLVSHIKELEPKMKKILQMNPRMRKFQVDMTLDADTANNFLLISDDLRSVRSGLITQNRQDLAERFDVSVCILGSPRFTCGRHYWEVDVGTSTEWDLGVCRESVHCKGKIQLTTELGFWTVSLRDGSRLSASTVPLTFLLVDRKLQRVGIFLDMGMQNVSFFDAESGSHVYTFRSVSAEEPLRPFLAPSIPPNGDQGVLSICPLMNSGTTDAPVRPGEAK | soluble |
| MAAQRRSLLQSEQQPSWTDDLPLCHLSGVGSASNRSYSADGKGTESHPPEDSWLKFRSENNCFLYGVFNGYDGNRVTNFVAQRLSAELLLGQLNAEHAEADVRRVLLQAFDVVERSFLESIDDALAEKASLQSQLPEGVPQHQLPPQYQKILERLKTLEREISGGAMAVVAVLLNNKLYVANVGTNRALLCKSTVDGLQVTQLNVDHTTENEDELFRLSQLGLDAGKIKQVGIICGQESTRRIGDYKVKYGYTDIDLLSAAKSKPIIAEPEIHGAQPLDGVTGFLVLMSEGLYKALEAAHGPGQANQEIAAMIDTEFAKQTSLDAVAQAVVDRVKRIHSDTFASGGERARFCPRHEDMTLLVRNFGYPLGEMSQPTPSPAPAAGGRVYPVSVPYSSAQSTS | soluble |
| MACKLLFWKLKDYQNILLYSPLGHELDIRPLIFRLRQKNKCVWLPKSIKKGAHFSKESFTIAPFRLPLRRLGWFDEPSLSRYYKQELDCIVVPILGMDTSFRRVGFGLGMYDRSLPQLLKRRLKRPLIVFVSRELAIANGVLTNAYDIEADLYMNARIVVKNNKRKHYEQRVNLHFIRSLGSVFDYRSSHVLCDEKDLLRLEHHHHHH | not soluble |
| MADDFKTAQMNNPHLRNYVEKFKKTYMKVPEFVPSLSRDFKEIKYPNIIYPIGDPIFIHLYGTPNLKTRYIAIEPKLNGSEERKKYFDILDKILEYAPYSDIPENDEEFGKVVTKLFDMVAK | not soluble |
| MADDPLYLDRTGEWAGLWWLPEIPDEKVPGFLRYDAECGLLLSLIGAFEDRVTSNPSPGVTAYHEGTRTWEVIHGVAEQREITLFDTIPISSKRTIGARVESPAKQTVTASVAIIGAHVRSEGDPQFAGVEVSVEDLGRWAGSSVFEGLLGAPDGNFDGTGSISVKPVEAQSVLVGGTEYRLVHTHTLPYFDQRKSETVGRMRDTVSIRIVPASPFSLNAALHEASLVQDLISLATHQSAGVIWLRVEVARSESQLPDGRTSPRRRADVLYSPVALGKHDAKPVDHHRMFFTCNSLPFEEVLPRWCETHVRLQAATNMILGLRYAPARFVENNLLTAVGAAEALHRNLRIGEKPFSKAEFTAMRGAMLDQVPSEHRERFKAAIRNDPTLRDRLHALAARPDEEAIGQLIPDVDYWAKRTTRARNDLAHEGRTPNHSFEELVAIVEVTTAVVILNVLQELGLSAERQREIVLTHPKLRHTVGLSREWLVPSKSD | not soluble |
| MADEERLKEFKEANKIVFDPNTRQVWENQNRDGTKPATTFQSEEDIKRAAPESEKDTSATSGIVPTLQNIVATVTLGCRLDLKTVALHARNAEYNPKRFAAVIMRIREPKTTALIFASGKMVVTGAKSEDDSKLASRKYARIIQKIGFAAKFTDFKIQNIVGSCDVKFPIRLEGLAFSHGTFSSYEPELFPGLIYRMVKPKIVLLIFVSGKIVLTGAKQREEIYQAFEAIYPVLSEFRKM | soluble |
| MADESETAVKPPAPPLPQMMEGNGNGHEHCSDCENEEDNSYNRGGLSPANDTGAKKKKKKQKKKKEKGSETDSAQDQPVKMNSLPAERIQEIQKAIELFSVGQGPAKTMEEASKRSYQFWDTQPVPKLGEVVNTHGPVEPDKDNIRQEPYTLPQGFTWDALDLGDRGVLKELYTLLNENYVEDDDNMFRFDYSPEFLLWALRPPGWLPQWHCGVRVVSSRKLVGFISAIPANIHIYDTEKKMVEINFLCVHKKLRSKRVAPVLIREITRRVHLEGIFQAVYTAGVVLPKPVGTCRYWHRSLNPRKLIEVKFSHLSRNMTMQRTMKLYRLPETPKTAGLRPMETKDIPVVHQLLTRYLKQFHLTPVMSQEEVEHWFYPQENIIDTFVVENANGEVTDFLSFYTLPSTIMNHPTHKSLKAAYSFYNVHTQTPLLDLMSDALVLAKMKGFDVFNALDLMENKTFLEKLKFGIGDGNLQYYLYNWKCPSMGAEKVGIVLQ | soluble |
| MADGEAVISTVNNVEEVHGQLFEVAPRYVNLSYIGEGAYGMVASALDTITRDRVAIKKISPFEHQTFCQRTLREIKILNRFKHENIINIQEIIRSETVDSLKDIYIVQCLMETDLYKLLKTQKLSNDHVCYFLYQILRGLKYIHSANVLHRDLKPSNLLLNTTCDLKICDFGLARVTDPQTDHTGFLTEYVATRWYRAPEIMLNSKGYTKSIDVWSVGCILAEMLSNRPLFPGKHYLDQLNLILAVVGSPSNADLQCIINDKARSYLISLPHKPKQPWARLYPGADPRALDLLDKMLTFNPHNRIDIEQALAHPYLEQYYDPGDEPVCEEPFTLEMEFDDLPKEKLKELIWEEAEAHHRRMEAEAAARNNGGQNPV | not soluble |
| MADKENATKIEKMPNSETMKGISSEDVPFEEDIIRNPTSVNCWQRYIDHKLQNKSPAKQMFLIYERALAVFERSYKLWYHYLKYRESTIVNKCPTDNSWRALCDTYERCLMRLHKMPRIWICYCEVMIKRGLITETRRVFDRALRSLPVTQHMRIWTLYIGFLTSHDLPETTIRVYRRYLKMNPKAREDYVEYLIERDQIDEAAKELTTLVNQDQNVSEKGRTAHQLWTQLCDLISKNPVKIFSLNVDAIIRQGIYRYTDQVGFLWCSLADYYIRSAEFERARDVYEEAIAKVSTVRDFAQVYDAYAAFEEREVSIMMQEVEQSGDPEEEVDLEWMFQRYQHLMERKNELMNSVLLRQNPHNVGEWLNRVNIYEGNYNKQIETFKEAVKSVNPKIQVGKVRDLWIGLAKLYEDNGDLDAARKTFETAVISQFGGVSELANVWCAYAEMEMKHKRAKAALTVMQRACVVPKPGDYENMQSVQARVHRSPILWAMYADYEECCGTVESCRKVYDKMIELRVASPQMIMNYAMFLEENEYFELAFQAYEKGIALFKWPGVFDIWNTYLVKFIKRYGGKKLERARDLFEQCLENCPPTHAKYIFLLYAKLEEEHGLARHALSIYNRACSGVDRADMHSMYNIYIKKVQEMYGIAQCRPIFERAISELPEDKSRAMSLRYAQLETTVGEIDRARAIYAHAAEISDPKVHVKFWDTWKNFEVAHGNEATVRDMLRVRRSVEASYNVNVTLTSVQMRVDAERKAQETTTSSNPMDSLDQQQQQPSDGAGSITQVSMNKGNISFVRGAGKTVQQNTTENPDEIDLDEDDDDEEDDGGDADISVKVVPAQIFGNLKLAEEEEEA | soluble |
| MADLRKAARGRECQVRIPGVCNGNPETSVLAHIRLTGLCGTGTKPPDLIATIACSACHDEIDRRTHFVDAGYAKECALEGMARTQVIWLKEGVIKA | soluble |
| MADSVLKEVNCGRPEKIPKLDKACEGSKSSWKHLKLGNVEDDEYLRQYCLFHYEFHKSEGFTVDWEKYDYMFHIRPLENSPPISDIRTNADVIRDVTLFAIEKHNEAHGSKLVFVEHVSANFKFANGLLCWLTFWATDMASSAPTSQIYQVELWRRGKQFEIPIFRVKPKDEEMDDVEVKPPSPMPYDDYDKPPVVFVRAAPEDGVPFVFDRTGALYDLYRSGL | soluble |
| MADTGEKDTETTASGTDGHSKEALAVISMLHECGIQEFDPRVVSMLMDVQYAVTSKILQMSSGLSRHAEKAQIEAEDVQTAADMLGVLTTNAPDREKILQLANDKNQQPLPQIRHNYGLKLPNDRFCQLQQNFVYKADDSYQPMEMQQVTHQPHIIEPPTQVLRPEHVQNMLKRRAPDDDFDS | not soluble |
| MADVFEFELEGHESQASPQRHAYHYDNCTEIMEDDHMYSNVADGQISAPPPSSSYMEDPMMESIQLCASAINPPNVRVGPEDFQLLKVLGKGGYGKVFQVRKTTGSDNGQIFAMKVLQKATIVRNQKDTAHTKAERNILEAVKSPFICDLLYAFQTGGKLYLILEYLSGGELFMHLEREGMFMENVAKFYLSEIVVSLEHLHQQGIIYRDLKPENILLDAYGHVKLTDFGLCKEEIEGDQKTHTFCGTIEYMAPEILMRCGHGKAVDWWSLGALMFDMLTGGPPFTAENRRKTIDKILKGRLTLPAYLSNEARDLIKKLLKRHVDTRLGAGLSDAEEIKSHAFFKTTDWNLVYARQLEAPFKPNIENDEDTSLFDARFTKMTPVDSPCETNFSLNGDNPFVGFTYVAPSVLEMMNKGGHGGISVAHLASSMSRAGAAKSPRKPGDPETASILHGGHSNLFGHGPNSEAPQAFGYGIGSQMTTTTAGGAGIQQPYQSFSGGYPEDDAMDTSTPRASESRETTTGNGSTTTTRPSNVGSSASTPIPLPKRVIKLPHTHTSTQNAQYSFMLLLLNVSLFFHFF | not soluble |
| MAEAASCARKGTKYAEGTQPFTVLIEGNIGSGKTTYLNHFEKYKNDICLLTEPVEKWRNVNGVNLLELMYKDPKKWAMPFQSYVTLTMLQSHTAPTNKKLKIMERSIFSARYCFVENMRRNGSLEQGMYNTLEEWYKFIEESIHVQADLIIYLRTSPEVAYERIRQRARSEESCVPLKYLQELHELHEDWLIHQRRPQSCKVLVLDADLNLENIGTEYQRSESSIFDAISSNQQPSPVLVSPSKRQRVAR | soluble |
